This is an account of results in US20170137473A1, “FLUOROGEN ACTIVATING AND SHIFTING TAG (FAST)” (PARIS SCIENCES ET LETTRE - QUARTIER LATIN, priority 2014, published 2017).

In series [1] the test system is wild-type bacteria, yeast and mammalian cells. The series can be described thus: Fluorescence background of fluorogen in wild-type cells (flow cytometry, confocal). It is filed as cell-based. The procedure:
(§1) Flow cytometry analysis was performed on an Accuri C6 (BD Biosciences). Confocal micrographs were acquired on a Zeiss LSM 710 Laser Scanning Microscope equipped with a Plan Apochromat 63×/1.4 NA oil immersion objective. ZEN software was used to collect the data. Images were analyzed with Image J. Spinning-disk confocal micrographs were acquired on a Nikon Eclipse Ti microscope equipped with a 4×/0.15 N.A objective and a coolSnap HQ2/CDDcamera (Princeton Instrument). Metamorph premier 7.6 software (Molecular Devices) was used to collect the data.
(§2) Labeling of Y-FAST with HBR and HMBR in cells was then analyzed by flow cytometry in three different expression systems: yeast, E. coli and mammalian cells (HeLa cells). The fluorescence was compared to wild-type cells or cells expressing wild-type PYP. […] The performance and selectivity of Y-FAST labeling in mammalian cells, yeast and bacteria was furthermore confirmed by confocal microscopy (FIG. 14d and FIGS. 15 c to f and FIG. 16).
For orientation: A flow cytometer gives signals particle by particle.

Series [2] concerns HeLa cells. The series can be described thus: LIVE/DEAD viability assay (calceinAM, EthD1) of HeLa cells. The class given is cell-based. The note with it: incubated 5 h at 5, 10 and 20 μM; concentrations used for imaging. As to the method:
Cell viability was tested by using calceinAM and EthD1 (LIVE/DEAD® viability/cytotoxicity assay kit). CalceinAM is a cell-permeant profluorophore cleaved by intracellular esterases releasing the green fluorescent polyanionic calcein in live cells. EthD1 (Ethidium homodimer 1) is a non cell-permeant nucleic acid red fluorescent stain that enters only cells with damaged membranes and undergoes a fluorescence enhancement upon binding to nucleic acids, thereby producing a bright red fluorescence in dead cells. Control experiments with HeLa cells non-incubated with dye (top left, live control) or incubated for 1 h with 1% hydrogen peroxyde (top right, dead control) are shown. Cell fluorescence was evaluated by confocal microscopy.

Another series addresses T1, wild-type PYP (Halorhodospira halophila, UniProt P16113, C69G).
T1 construct: fusion partner differs by host: Aga2p (yeast surface display, pAG14); His-tag-ENLYFQG (E. coli, pET28a); expressed in transfected cells
The series can be described thus: Fluorogen labeling of cells expressing wild-type PYP. It is filed as cell-based. The procedure: as §1, §2

Series [3] is described as follows: Acid-base titration and absorption/emission of free fluorogen in aqueous solution. The class given is physicochemical. The procedure: (§3) pH measurements were performed on a Standard pH meter PHM210 Radiometer Analytical (calibrated with aqueous buffers at pH 4 and 7 or 10) with a Crison 5208 Electrode (Barcelona, Spain). UV/Vis absorption spectra were recorded in 1 cm×1 cm quartz cuvettes (Hellma) on a diode array UV/Vis spectrophotometer (Evolution array, Thermo Scientific). Corrected fluorescence spectra upon one-photon excitation were recorded with a Photon Technology International QuantaMaster QM-1 spectrofluorimeter (PTI, Monmouth Junction, NJ) equipped with a Peltier cell holder (TLC50, Quantum Northwest, Shoreline, Wash.). The overall emission quantum yields after one-photon excitation φ were calculated from the relation: […]
(§4) where the subscript ref stands for standard samples. A(λexc) is the absorbance at the excitation wavelength λexc, D is the integrated emission spectrum, and n is the refractive index for the solvent. The uncertainty for the experimental value of φ was estimated to be ±20%. The standard fluorophore for the quantum yields measurements was Fluorescein in sodium hydroxide 0.1 M with φref=0.92. The titration experiments used for the determination of the thermodynamic constants were performed on a SpectraMax®M5e (Molecular Devices) plate-reader. The on- and off-rate constants were determined by stopped-flow experiments using a RX2000 rapid kinetic stopped flow accessory (Applied Photophysics, Leatherhead, UK). The circular dichroism spectra were recorded on a J-815 circular dichroism spectropolarimeter (Jasco). The photobleaching experiments were performed on a the Photon Technology International QuantaMaster QM-1 spectrofluorimeter (PTI, Monmouth Junction, NJ) equipped with a Peltier cell holder (TLC50, Quantum Northwest, Shoreline, Wash.).
The stability of the synthesized compounds was evaluated in aqueous solutions at neutral pH. Unstable and/or non-soluble compounds were not further studied. The photochemical and acido-basic properties of the remaining compounds were thus analyzed. Acid-base titrations were performed in aqueous solution by recording absorption and emission spectra as a function of pH.
The protonated phenol state of HBR was indeed shown to strongly absorb violet light (maximal absorption wavelength 397 nm), while the phenolate state strongly absorbs blue light (maximal absorption wavelength 449 nm) (FIG. 2). This red-shift in absorption upon ionization can be explained by the stronger electronic donation of the negatively charged phenolate. The possible fluorescence increase of HBR was evaluated by restricting the motion thereof in monitoring the influence of medium viscosity on HBR fluorescence emission. With a pKA of 8.4±0.1, HBR is mainly protonated at physiological pH, which enabled to forecast it could undergo a specific red shift upon binding-induced deprotonation within a tailored protein cavity. In aqueous solution, both acidic and basic states of HBR are weakly fluorescent (FIG. 3), emitting respectively at 470 and 545 nm with 0.02% and 0.3% fluorescence quantum yields.

For series [4] the following is noted: known in the art; cited from earlier work.
The nature of series [5]: Circular dichroism stability of Y-FAST versus temperature. It is filed as physicochemical. Particulars: 25-45° C. range.
Source text: Note that we verified by circular dichroism, that Y-FAST was stable in the considered temperature range in order to ascertain that our two-state model was valid for the subsequent analyses.
as §4
On the technique in general: Circular dichroism is widely used to follow secondary structure.

Series [6] in a line: Absorption and emission properties of HBR-binding PYP variants in presence of HBR. The note with it: variant with HBR; for λabs / λem: PBS pH 7.4; for Fluorescence quantum yield: fraction. It is filed as physicochemical. As to the method: as §3, §4
The photophysical properties of the engineered fluorescent proteins were more precisely characterized. […] This 70 nm red-shift in absorption was in accordance with HBR being bound within the PYP-variant cavity in its deprotonated state. This red-shift in absorption upon binding was also accompanied with a large fluorescence increase at 540 nm (FIG. 10 and Table 2 below).

Series [7] concerns HeLa cells. In words: Brightness and photostability of fluorescent proteins expressed in mammalian (HeLa) cells. The class given is cell-based. The procedure:
FIG. 18 is a set of graphs and images showing Y-FAST brightness and photo-resistance in mammalian cells. […] (a) Confocal micrographs of representative cells (Ex/Em 488/493-797 nm; scale bars 10 μm). Side-by-side images were recorded using the same settings for direct comparison of the fluorescence intensities. (b) Quantification of the fluorescence brightness of the different proteins (n=15-30 cells).
UnaG upon long-term observation with high power 488 nm laser excitation (light power 90 kW·cm-2, pixel dwell 1.58 μs). Plots show the fluorescence intensity as a function of the number of confocal microscope scans.
HEK293 and HeLa cells were cultured in DMEM supplemented with phenol red, Glutamax I, 10% fetal calf serum and 1% penicillin-streptomycin at 37° C. within a 5% CO2 atmosphere. For microscopy imaging, cells were seeded in μDish IBIDI (Biovalley) coated with poly-L-lysine. Cells were transiently transfected using Genejuice (Merck) according to the manufacturer's protocol.
as §1

The mark [8] stands for this setting: glycerol content increased from 0 to 40% (v/v).

T1 sequence (P16113 whole entry C69G, the tested form may be a part): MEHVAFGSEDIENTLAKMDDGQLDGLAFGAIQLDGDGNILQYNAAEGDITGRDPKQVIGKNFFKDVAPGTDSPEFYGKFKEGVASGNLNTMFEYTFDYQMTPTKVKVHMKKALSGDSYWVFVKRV

`O=C1NC(=S)S/C1=C\c1ccc(O)cc1` [HBR, (Z)-5-(4-hydroxybenzylidene)-2-thioxo-1,3-thiazolidin-4-one]: in series [1], the “fluorescence background in wild-type cells” value is on record as “no or negligible fluorescence background”. The “toxicity for HeLa cells” value in the series on HeLa cells [2] was “non-toxic”. Besides, at wild-type PYP, the “binding to wild-type PYP” value was “do not bind”. The pKa (commonly the negative logarithm of the acid dissociation constant) in series [3] (aqueous solution) turned out to be 8.4 ± 0.1. For the same molecule, in series [3] (free in aqueous solution), the “emission wavelength, acidic state” value is 470 nm; the “emission wavelength, basic state” value is given as 545 nm; the “fluorescence quantum yield, acidic state” value stood at 0.02%; the “fluorescence quantum yield, basic state” value is 0.3%. Also, in series [3] (free in aqueous solution), the “maximal absorption wavelength, phenolate state” value was 449 nm and the “maximal absorption wavelength, protonated phenol state” value came to 397 nm. This molecule yielded a maximal absorption wavelength in series [3] (free, PBS pH 7.4) of 397 nm. Moreover, in series [3] (setting [8]), the “increase of the fluorescence quantum yield, acidic state” value is recorded as “Six” and the “increase of the fluorescence quantum yield, basic state” value is recorded as “three-fold”.

Consider “parahydroxybenzylidene-5-imidazolinone [p-HBI]”, for which, in series [4], the “absorption wavelength, deprotonated form” value is 475 nm and the “absorption wavelength, protonated form” value was 397 nm.

B1: Clone 3: best fluorescent HBR-binding PYP variant, SEQ ID NO: 3, residues 94-101 WMIPTSRG (protein)
chain: MEHVAFGSEDIENTLAKMDDGQLDGLAFGAIQLDGDGNILQYNAAEGDITGRDPKQVIGKNFFKDVAPGTDSPEFYGKFKEGVASGNLNTMFEWMIPTSRGPTKVKVHMKKALSGDSYWVFVKRV
modifications: Functional derivative of SEQ ID NO: 48 - Clone 3
Regarding B1, the “stability by circular dichroism” value in series [5] is given as “stable”. Further, in series [6], the Extinction coefficient is 44,000 M^−1cm^−1, the “Relative brightness (% of EGFP)” value is listed as 12 % of EGFP, the brightness is 4,000 and the λabs was 467 nm. Further, in series [6], the λem is on record as 542 nm and the Fluorescence quantum yield is on record as 0.09. Besides, in the series on HeLa cells [7] (488 nm excitation), the photostability in cells entry is “more stable than UnaG and Venus, but less than EGFP”. Besides, in the series on HeLa cells [7] (blue excitation at 488 nm, Y-FAST labeled with 5 μM HMBR), the “fluorescence in mammalian cells” value is “comparable with that of the green fluorescent proteins EGFP and UnaG, and two fold lower than that of the yellow fluorescent Venus”. The photostability in cells result in the series on HeLa cells [7] (excitation at 514 nm) is “almost did not photobleach”. Also, the “fluorescence in mammalian cells” value in the series with HeLa cells [7] (green excitation at 514 nm) is recorded as “five-fold less than Venus”.

B2: Clone 4: fluorescent HBR-binding PYP variant, SEQ ID NO: 4, residues 94-101 WDIPTNPE (protein)
chain: MEHVAFGSEDIENTLAKMDDGQLDGLAFGAIQLDGDGNILQYNAAEGDITGRDPKQVIGKNFFKDVAPGTDSPEFYGKFKEGVASGNLNTMFEWDIPTNPEPTKVKVHMKKALSGDSYWVFVKRV
modifications: Functional derivative of SEQ ID NO: 48 - Clone 4
On to B2, for which, in series [6], the Extinction coefficient is listed as 41,000 M^−1cm^−1, the “Relative brightness (% of EGFP)” value was 7.4 % of EGFP, the brightness is recorded as 2,500 and the λabs is on record as 468 nm. In addition, in series [6], the λem was 541 nm and the Fluorescence quantum yield is listed as 0.06.

B3: Clone 6: fluorescent HBR-binding PYP variant, SEQ ID NO: 6, residues 94-101 WLIPTRNA (protein)
chain: MEHVAFGSEDIENTLAKMDDGQLDGLAFGAIQLDGDGNILQYNAAEGDITGRDPKQVIGKNFFKDVAPGTDSPEFYGKFKEGVASGNLNTMFEWLIPTRNAPTKVKVHMKKALSGDSYWVFVKRV
modifications: Functional derivative of SEQ ID NO: 48 - Clone 6
B3: in series [6], the Extinction coefficient is on record as 43,000 M^−1cm^−1, the “Relative brightness (% of EGFP)” value is listed as 9.0 % of EGFP, the brightness is listed as 3,000 and the λabs came out at 467 nm. Moreover, in series [6], the λem is recorded as 539 nm and the Fluorescence quantum yield was 0.07.

B4: Clone 2: fluorescent HBR-binding PYP variant, SEQ ID NO: 2, residues 94-101 WLIPTLPQ (protein)
chain: MEHVAFGSEDIENTLAKMDDGQLDGLAFGAIQLDGDGNILQYNAAEGDITGRDPKQVIGKNFFKDVAPGTDSPEFYGKFKEGVASGNLNTMFEWLIPTLPQPTKVKVHMKKALSGDSYWVFVKRV
modifications: Functional derivative of SEQ ID NO: 48 - Clone 2
For the molecule B4, in series [6], the Extinction coefficient was 46,000 M^−1cm^−1, the “Relative brightness (% of EGFP)” value is on record as 8.3 % of EGFP, the brightness is recorded as 2,800 and the λabs amounted to 466 nm. Further, in series [6], the λem came out at 540 nm and the Fluorescence quantum yield was 0.06.

B5: Clone 5: fluorescent HBR-binding PYP variant, SEQ ID NO: 5, residues 94-101 WRIPTECA (protein)
chain: MEHVAFGSEDIENTLAKMDDGQLDGLAFGAIQLDGDGNILQYNAAEGDITGRDPKQVIGKNFFKDVAPGTDSPEFYGKFKEGVASGNLNTMFEWRIPTECAPTKVKVHMKKALSGDSYWVFVKRV
modifications: Functional derivative of SEQ ID NO: 48 - Clone 5
With B5, in series [6], the Extinction coefficient is reported as 47,000 M^−1cm^−1, the “Relative brightness (% of EGFP)” value was 8.3 % of EGFP, the brightness is 2,800 and the λabs is 468 nm. Moreover, in series [6], the λem was found to be 542 nm and the Fluorescence quantum yield is given as 0.06.
